From PMC8552709, “Mechanistic Insights into the Capsule-Targeting Depolymerase from a Klebsiella pneumoniae Bacteriophage” (Microbiology Spectrum, 2021)

Molecular target: the molecule itself
Assay: SEC; HiLoad 16/600 Superdex 200-pg column, 25 mM Tris (pH 8.0), 200 mM NaCl; peak checked by reducing SDS-PAGE

B1: DpK2 (gp02), capsule depolymerase / tailspike protein of Klebsiella phage RAD2 (enzyme, UniProt P0DTN8 1-907, looked up)
chain: MALYREGKAAMAADGTVTGTGTKWQSSLSLIRPGATIMFLSSPIQMAVVNKVVSDTEIKAITTSGAVVASTDYAILLSDSLTVDGLAQDVAETLRHYQSQETVIADAVEFFKSFDFDSLQNLANQIKADSESAESSAAAAAASESKAKTSEDNAKSSENAAKNSEVAAETTRDQIQQIIDNAGDQSTLVVLAQPDGFDSIGRVSSFAALRNLKPKKSGQHVLLTSYYDGWAAENKMPTGGGEFISSIGTATDDGGYIAAGPGYYWTRVVNNNSFTAEDFGCKTTATPPPNFNVLPAELFDNTAMMQAAFNLAISKSFKLNLSTGTYYFESSDTLRITGPIHIEGRPGTVFYHNPSNKANPKTDAFMNISGCSAGRISSINCFSNSYLGKGINFDRSVGDNRKLVLEHVYVDTFRWGFYVGEPECINQIEFHSCRAQSNYFQGIFIESFKEGQEYGHSAPVHFFNTICNGNGPTSFALGATYKTTKNEYIKVMDSVNDVGCQAYFQGLSNVQYIGGQLSGHGSPRNTSLATITQCNSFIIYGTDLEDINGFTTDGTAITADNIDAIESNYLKDISGAAIVVSSCPGFKIDSPHIFKIKTLSTIKLMNNTYNYEIGGFTPDEALKYNVWDANGLATNRISGVIHPRLVNSRLGINSVAFDNMSNKLDVSSLIHNETSQIVGLTPSTGSNVPHTRKMWSNGAMYSSTDLNNGFRLNYLSNHNEPLTPMHLYNEFSVSEFGGSVTESNALDEIKYIFIQTTYANSGDGRFIIQALDASGSVLSSNWYSPQSFNSTFPISGFVRFDVPTGAKKIRYGFVNSANYTGSLRSHFMSGFAYNKRFFLKIYAVYNDLGRYGQFEPPYSVAIDRFRVGDNTTQMPSIPASSATDVAGVNEVINSLLASLKANGFMSS
notes: DpK2, product of gp02 of Klebsiella phage RAD2 (genome GenBank MW655991); 98 kDa; the open reading frame was cloned between NcoI and XhoI of pPROEX htb; residues 191 to 906 are modelled in the cryo-EM structure; Homotrimer; The forward primer ([residues removed]) reads M-G-A-L-Y-R-E-G-K, so the NcoI site may add a glycine after the first methionine; no removal of the His tag is described; also …
  stoichiometry N: 3
